Measurements reported in PMC9953421, “Regulation of CRISPR-Associated Genes by Rv1776c (CasR) in Mycobacterium tuberculosis”.

T1: CasR (Rv1776c) (UniProt O33179 1-186)
T1 sequence: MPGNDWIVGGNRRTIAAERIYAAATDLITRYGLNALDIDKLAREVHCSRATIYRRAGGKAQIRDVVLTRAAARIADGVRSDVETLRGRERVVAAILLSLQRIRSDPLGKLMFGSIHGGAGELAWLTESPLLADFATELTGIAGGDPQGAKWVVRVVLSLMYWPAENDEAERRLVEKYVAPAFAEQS


Molecular target: T1, CasR (Rv1776c)
Assay: EMSA; 0-2 uM protein
Conditions: protein: recombinant; tags: N-terminal His (pET28a); chain copies: 2

Row | Binder | binding result
1 | csm6p2 (dsDNA) DNA 1: CGATCAGGAAAACAATTAGACGCAGGGGC DNA 2: GCCCCTGCGTCTAATTGTTTTCCTGATCG | no binding
2 | casRp4 (dsDNA) DNA 1: AATAGCGCCCCGTTGTTAGACTAGATGA DNA 2: TCATCTAGTCTAACAACGGGGCGCTATT | no binding
